In article PMC7658359:

How the values were obtained:
[1] = molecular target: Arabidopsis histone H2A (HTA1)-H2B (HTB1) dimer, Q9LD28;Q9LQQ4; assay: ITC
[2] = molecular target: Arabidopsis histone variant H2A.Z (HTA9)-H2B (HTB1) dimer (Arabidopsis thaliana) (UniProt Q9C944); assay: ITC; MicroCal iTC200; OsChz1-C or its mutants injected into histone H2A-H2B or H2A.Z-H2B solutions; 19 injections of 2 μl
[3] = molecular target: Arabidopsis histone H2A (HTA1)-H2B (HTB1) dimer (Arabidopsis thaliana) (UniProt Q9LD28); assay: as above
Chain of Arabidopsis histone H2A (HTA1)-H2B (HTB1) dimer (Arabidopsis thaliana) (Q9LD28 whole entry, chain 1 of 2): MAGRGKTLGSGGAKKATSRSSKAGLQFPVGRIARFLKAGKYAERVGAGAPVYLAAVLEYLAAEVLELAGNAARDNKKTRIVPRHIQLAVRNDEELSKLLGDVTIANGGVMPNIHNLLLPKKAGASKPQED
Chain of Arabidopsis histone H2A (HTA1)-H2B (HTB1) dimer (Arabidopsis thaliana) (Q9LQQ4 whole entry, chain 2 of 2, further chain): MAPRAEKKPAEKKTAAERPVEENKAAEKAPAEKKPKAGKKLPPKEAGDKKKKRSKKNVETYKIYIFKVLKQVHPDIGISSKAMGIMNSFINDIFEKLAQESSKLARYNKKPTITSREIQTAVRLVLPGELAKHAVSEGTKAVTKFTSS

Row | Kd [2] | Substance | Kd [1] | Kd [3]
1 |  | OsChz1-C (OsChz1 338–471), wild type 1M | 150 nM | 
2 |  | OsChz1-C (OsChz1 338–471), wild type 2M | 259 nM | 
3 |  | OsChz1-C (OsChz1 338–471), wild type 3M | 146 nM | 
4 | 64.1 nM | OsChz1-C (OsChz1 338–471), wild type (domain or fragment) |  | 9.8 nM
